Source: PMC4866497
Like-named read-outs stand apart in the source and are kept apart here.

Columns and labels:
[1] = tested on: MetMab full heavy chain with D399M Y407A, with MetMab light chain; test: SEC
[2] = tested on: MetMab full heavy chain with D399M Y407A, with MetMab light chain; test: SEC; remark: listed apart in the source
IgG1 Fc with T366V K409V = test: SEC
[3] = tested on: MetMab full heavy chain with E345R Q347R T366V K409V, with MetMab light chain; test: SEC
[4] = tested on: MetMab full heavy chain with E345R Q347R T366V K409V, with MetMab light chain; test: SEC; remark: listed apart in the source
[5] = tested on: MetMab full heavy chain with K360D D399M Y407A, with MetMab light chain; test: SEC
[6] = tested on: MetMab full heavy chain with K360D D399M Y407A, with MetMab light chain; test: SEC; remark: listed apart in the source
[7] = tested on: MetMab full heavy chain with T350V L351Y F405A Y407V, with MetMab light chain; test: SEC
[8] = tested on: MetMab full heavy chain with T350V L351Y F405A Y407V, with MetMab light chain; test: SEC; remark: listed apart in the source
[9] = tested on: MetMab full heavy chain with T366V K409V, with MetMab light chain; test: SEC
[10] = tested on: MetMab full heavy chain with T366V K409V, with MetMab light chain; test: SEC; remark: listed apart in the source
[11] = tested on: EGFR domain 3 - Fc with D399M Y407A; test: FRET or BRET
[12] = tested on: MetMab full heavy chain with T350V T366L K392L T394W, with MetMab light chain; test: SEC
[13] = tested on: MetMab full heavy chain with T350V T366L K392L T394W, with MetMab light chain; test: SEC; remark: listed apart in the source
[14] = tested on: EGFR domain 3 - Fc with T350V T366L K392L T394W; test: FRET or BRET

IgG1 Fc with T366V K409V
% AB heterodimer [1]: 42.3% | % AB heterodimer [2]: 89.9%

IgG1 Fc with T366V K409V (domain or fragment)
% BB homodimer (co-expressed with m8) (IgG1 Fc with T366V K409V): 8.2%

IgG1 Fc with K360D D399M Y407A
% AB heterodimer [3]: 32.5% | % AB heterodimer [4]: 93.3%

IgG1 Fc with E345R Q347R T366V K409V
% AB heterodimer [5]: 46.2% | % AB heterodimer [6]: 92.9%

IgG1 Fc with T350V T366L K392L T394W
% AB heterodimer [7]: 25.6% | % AB heterodimer [8]: 87.6%

IgG1 Fc with D399M Y407A
% AB heterodimer [9]: 26.9% | % AB heterodimer [10]: 88.6%

VEGFR1 domain 3 - Fc with T366V K409V
% AB heterodimer [11]: 89%

IgG1 Fc with T350V L351Y F405A Y407V
% AB heterodimer [12]: 18.3% | % AB heterodimer [13]: 94.3%

VEGFR1 domain 3 - Fc with T350V L351Y F405A Y407V
% AB heterodimer [14]: 94.8%
